B1: recombinant human Bri2(90-236) (other, not shown: small tags and cut ends)
chain: GIKYIKDDVILNEPSADAPAALYQTIEENIKIFEEEEVEFISVPVPEFADSDPANIVHDFNKKLTAYLDLNLDKCYVIPLNTSIVMPPRNLLELLINIKAGTYLPQSYLIHEHMVITDRIENIDHLGFFIYRLCHDKETYKLQRRET

What was measured:
human Aβ1-40 peptide = human Aβ1-40 peptide (human); experiment: cell-based or functional assay
[1] = target: B1; experiment: ESI-MS
Description: Protein and peptides were mixed at 22° C. directly before analysis at a final protein concentration of 20 μM and a final peptide concentration of 50 μM. Data was acquired using a QTOF Ultima API mass spectrometer (Waters, Milford, Mass., USA) equipped with a Z-spray source operated in the positive-ion mode. Samples were introduced via nano-electrospray using metal-plated borosilicate glass capillary needles (Proxeon, Denmark). The source temperature was 80° C., the capillary voltage 1.7 kV, and the cone and RF lens 1 potentials were 100 and 38 V, respectively. The mass spectrometer was operated in single-reflector mode at a resolution of 10 000 (full width half maximum definition), and the mass scale was calibrated using myoglobin. Scans were acquired at a rate of 1 scan per 2 sec between 500 and 4000 m/z. The collision gas was argon at 5.2×10⁻⁵ mbar. Mass spectra were smoothed using the Waters MassLynx software.
Mass spectra were recorded to investigate the presence and stoichiometry of protein-peptide complexes in the gas phase.

Sequence of human Aβ1-40 peptide (human) (peptide, as listed by the source): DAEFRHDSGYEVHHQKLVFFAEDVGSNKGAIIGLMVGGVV

Binder | fold prolongation of the half time of Aβ1-40 aggregation, ThT fluorescence (human Aβ1-40 peptide) [times] | binding result [1]
B1 | ~4.5 | –
H-KFFEYNGKKFFE-OH (also called synthetic peptide) | – | binds
